Earlier results, collected in article PMC3210452.
Where two headings read alike, the source gives them in different places.

Experiments:
[1] = molecular target: P-type voltage-gated calcium channel (UniProt P54282)
[2] = molecular target: Q-type voltage-gated calcium channel (UniProt O00555)
[3] = molecular target: P-type voltage-gated calcium channel (UniProt P54282); remark: listed apart in the source

Chain of UniProt P54282 (P54282 whole entry): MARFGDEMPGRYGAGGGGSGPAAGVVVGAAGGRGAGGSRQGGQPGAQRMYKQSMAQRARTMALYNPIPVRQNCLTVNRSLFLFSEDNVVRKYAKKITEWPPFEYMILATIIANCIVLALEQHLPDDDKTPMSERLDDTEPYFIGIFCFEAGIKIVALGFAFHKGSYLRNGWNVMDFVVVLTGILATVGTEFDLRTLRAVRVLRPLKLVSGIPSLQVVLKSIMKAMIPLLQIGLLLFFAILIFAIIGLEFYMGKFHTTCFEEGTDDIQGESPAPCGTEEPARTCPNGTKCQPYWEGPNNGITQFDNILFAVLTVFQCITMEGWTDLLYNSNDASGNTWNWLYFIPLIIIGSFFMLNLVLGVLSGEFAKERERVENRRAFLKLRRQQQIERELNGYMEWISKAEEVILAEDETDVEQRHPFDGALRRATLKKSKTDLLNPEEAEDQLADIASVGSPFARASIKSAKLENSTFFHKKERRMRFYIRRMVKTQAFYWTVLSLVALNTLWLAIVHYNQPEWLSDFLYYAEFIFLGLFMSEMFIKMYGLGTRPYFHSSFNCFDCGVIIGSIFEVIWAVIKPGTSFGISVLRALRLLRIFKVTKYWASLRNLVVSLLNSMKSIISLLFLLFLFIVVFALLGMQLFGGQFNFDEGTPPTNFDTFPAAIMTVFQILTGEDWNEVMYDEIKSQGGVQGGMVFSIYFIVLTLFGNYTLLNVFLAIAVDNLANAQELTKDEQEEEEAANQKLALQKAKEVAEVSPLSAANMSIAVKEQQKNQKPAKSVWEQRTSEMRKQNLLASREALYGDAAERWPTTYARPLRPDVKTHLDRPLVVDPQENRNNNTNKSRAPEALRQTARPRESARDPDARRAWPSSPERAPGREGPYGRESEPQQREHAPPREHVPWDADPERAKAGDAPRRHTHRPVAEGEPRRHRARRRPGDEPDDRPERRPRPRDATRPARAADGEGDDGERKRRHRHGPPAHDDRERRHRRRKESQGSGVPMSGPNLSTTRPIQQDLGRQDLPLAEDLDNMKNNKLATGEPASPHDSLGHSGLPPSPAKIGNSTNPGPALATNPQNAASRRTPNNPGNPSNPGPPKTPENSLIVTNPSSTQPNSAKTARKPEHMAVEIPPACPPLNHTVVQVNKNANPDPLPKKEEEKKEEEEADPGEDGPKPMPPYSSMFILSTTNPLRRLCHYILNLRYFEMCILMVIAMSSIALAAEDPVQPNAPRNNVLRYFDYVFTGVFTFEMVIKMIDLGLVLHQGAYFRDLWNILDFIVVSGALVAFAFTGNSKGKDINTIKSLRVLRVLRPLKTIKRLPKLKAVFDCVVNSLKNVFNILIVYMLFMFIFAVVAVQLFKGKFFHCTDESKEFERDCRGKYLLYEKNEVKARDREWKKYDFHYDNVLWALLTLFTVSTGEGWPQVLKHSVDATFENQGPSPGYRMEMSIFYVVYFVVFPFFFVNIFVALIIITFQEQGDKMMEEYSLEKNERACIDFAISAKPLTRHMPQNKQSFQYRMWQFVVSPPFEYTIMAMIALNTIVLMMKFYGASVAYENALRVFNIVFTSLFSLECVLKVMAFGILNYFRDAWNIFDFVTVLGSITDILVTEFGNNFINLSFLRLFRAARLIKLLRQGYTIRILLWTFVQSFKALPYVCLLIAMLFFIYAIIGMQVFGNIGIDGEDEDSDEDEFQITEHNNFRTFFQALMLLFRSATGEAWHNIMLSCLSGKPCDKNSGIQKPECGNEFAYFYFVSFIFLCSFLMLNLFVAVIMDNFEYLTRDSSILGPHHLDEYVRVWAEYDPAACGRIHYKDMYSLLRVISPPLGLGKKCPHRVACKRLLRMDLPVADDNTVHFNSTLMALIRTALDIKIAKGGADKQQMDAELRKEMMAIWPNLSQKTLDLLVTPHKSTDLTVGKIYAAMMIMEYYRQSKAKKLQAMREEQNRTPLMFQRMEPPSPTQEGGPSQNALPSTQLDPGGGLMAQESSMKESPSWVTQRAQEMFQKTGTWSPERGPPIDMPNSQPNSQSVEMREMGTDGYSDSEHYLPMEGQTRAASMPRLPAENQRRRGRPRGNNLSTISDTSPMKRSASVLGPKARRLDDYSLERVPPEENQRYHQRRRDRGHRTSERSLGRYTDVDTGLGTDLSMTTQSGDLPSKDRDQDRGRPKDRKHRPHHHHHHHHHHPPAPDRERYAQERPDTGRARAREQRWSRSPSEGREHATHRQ
Chain of UniProt O00555 (O00555 whole entry): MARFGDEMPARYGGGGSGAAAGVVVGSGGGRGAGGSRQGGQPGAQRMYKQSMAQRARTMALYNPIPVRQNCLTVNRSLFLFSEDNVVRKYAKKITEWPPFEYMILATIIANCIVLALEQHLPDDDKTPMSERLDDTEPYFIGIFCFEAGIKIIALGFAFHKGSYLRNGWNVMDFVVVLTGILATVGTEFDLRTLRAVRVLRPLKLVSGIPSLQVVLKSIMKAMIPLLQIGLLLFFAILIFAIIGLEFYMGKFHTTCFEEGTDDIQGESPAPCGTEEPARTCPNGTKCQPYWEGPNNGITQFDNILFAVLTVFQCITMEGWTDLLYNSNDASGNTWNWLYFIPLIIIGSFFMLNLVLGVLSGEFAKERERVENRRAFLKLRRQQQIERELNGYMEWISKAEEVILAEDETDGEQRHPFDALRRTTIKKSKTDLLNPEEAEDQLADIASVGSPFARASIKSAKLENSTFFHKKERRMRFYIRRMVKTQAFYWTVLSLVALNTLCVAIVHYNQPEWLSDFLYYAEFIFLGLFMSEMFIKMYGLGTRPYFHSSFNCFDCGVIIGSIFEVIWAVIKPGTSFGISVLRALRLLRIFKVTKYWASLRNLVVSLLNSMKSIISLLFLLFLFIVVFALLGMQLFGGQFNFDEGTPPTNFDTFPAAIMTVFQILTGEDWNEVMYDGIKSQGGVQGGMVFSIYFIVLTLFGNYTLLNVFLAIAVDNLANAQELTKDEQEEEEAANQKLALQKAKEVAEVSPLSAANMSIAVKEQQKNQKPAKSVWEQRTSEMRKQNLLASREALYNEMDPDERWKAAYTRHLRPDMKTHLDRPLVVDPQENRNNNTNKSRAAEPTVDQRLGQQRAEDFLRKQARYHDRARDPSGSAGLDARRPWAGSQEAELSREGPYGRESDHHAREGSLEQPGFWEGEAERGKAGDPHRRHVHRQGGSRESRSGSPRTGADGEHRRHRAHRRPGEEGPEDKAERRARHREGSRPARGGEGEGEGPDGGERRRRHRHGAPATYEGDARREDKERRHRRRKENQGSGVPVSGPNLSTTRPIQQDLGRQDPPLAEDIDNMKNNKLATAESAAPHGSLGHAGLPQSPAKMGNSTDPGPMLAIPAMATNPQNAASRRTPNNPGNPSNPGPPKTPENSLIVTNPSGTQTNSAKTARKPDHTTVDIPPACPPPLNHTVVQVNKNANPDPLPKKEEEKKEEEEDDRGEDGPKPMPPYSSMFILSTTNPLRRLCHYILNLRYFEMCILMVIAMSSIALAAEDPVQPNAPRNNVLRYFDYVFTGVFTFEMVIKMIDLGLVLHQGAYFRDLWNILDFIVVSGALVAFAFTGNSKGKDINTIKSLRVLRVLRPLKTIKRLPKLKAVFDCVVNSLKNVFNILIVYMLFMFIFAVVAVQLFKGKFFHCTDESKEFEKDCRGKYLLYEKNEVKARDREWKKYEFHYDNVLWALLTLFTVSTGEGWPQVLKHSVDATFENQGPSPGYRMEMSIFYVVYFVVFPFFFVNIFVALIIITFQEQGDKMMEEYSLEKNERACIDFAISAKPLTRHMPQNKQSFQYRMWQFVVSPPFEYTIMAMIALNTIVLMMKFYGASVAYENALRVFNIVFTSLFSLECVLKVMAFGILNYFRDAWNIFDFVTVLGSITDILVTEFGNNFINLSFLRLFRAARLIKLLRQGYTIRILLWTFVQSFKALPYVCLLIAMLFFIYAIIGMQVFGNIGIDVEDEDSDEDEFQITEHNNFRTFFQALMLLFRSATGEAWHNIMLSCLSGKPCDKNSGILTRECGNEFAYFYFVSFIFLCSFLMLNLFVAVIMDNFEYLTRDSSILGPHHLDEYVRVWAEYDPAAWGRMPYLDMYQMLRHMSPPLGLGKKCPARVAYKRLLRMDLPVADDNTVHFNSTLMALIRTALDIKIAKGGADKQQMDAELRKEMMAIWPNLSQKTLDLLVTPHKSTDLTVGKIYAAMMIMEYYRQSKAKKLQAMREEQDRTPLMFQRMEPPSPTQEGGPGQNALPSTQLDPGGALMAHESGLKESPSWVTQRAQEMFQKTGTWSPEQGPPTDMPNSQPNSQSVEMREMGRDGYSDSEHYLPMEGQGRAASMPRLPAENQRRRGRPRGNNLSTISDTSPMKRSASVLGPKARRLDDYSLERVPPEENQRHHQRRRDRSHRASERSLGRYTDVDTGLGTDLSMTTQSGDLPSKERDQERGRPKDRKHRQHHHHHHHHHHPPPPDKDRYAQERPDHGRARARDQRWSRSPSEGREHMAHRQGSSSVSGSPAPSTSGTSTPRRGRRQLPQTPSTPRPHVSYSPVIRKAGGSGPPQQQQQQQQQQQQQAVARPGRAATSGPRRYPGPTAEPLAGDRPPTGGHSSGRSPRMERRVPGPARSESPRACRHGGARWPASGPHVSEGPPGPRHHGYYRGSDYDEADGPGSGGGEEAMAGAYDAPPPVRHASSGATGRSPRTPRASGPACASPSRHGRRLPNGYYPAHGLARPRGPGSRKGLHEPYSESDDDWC

| Substance | Kd [1] [nM] | Kd [2] [nM] | Kd [3] [nM] |
| --- | --- | --- | --- |
| ω-agatoxin IVA (from UniProt P30288) | 2 | 100 | – |
| ω-agatoxin IVB (from UniProt P37045) | – | – | 3 |
